Measurements from US20070004634A1 (Novo Nordisk A/S, priority 1998, published 2007).
Values belong to the molecule of their own block, whether it stands above or below them.

Columns and labels:
MCF-7 cells = assay: MCF-7 cell proliferation assay, IGF-1R agonist format; type: cell-based, human; details: MCF-7 and MiaPaCa cells (Tables 27-28)
Description: ; FIGS. 65A-65F), and were used for subsequent experiments.

[1] = target: T1, insulin receptor construct transfected into 32D cells (Homo sapiens, UniProt P06213); assay: IR autophosphorylation assay in IR transfected 32D cells (ELISA); type: cell-based; details: tested as MBP fusion peptides
T1 construct: expressed in transfected cells; host or cells: 32D cells (clone 969)
Procedure: The IR transfected 32D cells were seeded at […] in 96-well tissue culture plates and incubated overnight at 37° C. […] The culture media was decanted from the cell culture plates, and the diluted samples were added to the cells. The plates were incubated at 37° C. for 30 min. The stimulation medium was decanted from the plates, and cell lysis buffer (50 mM HEPES pH 7.2, 150 mM NaCl, 0.5% Triton X-100, 1 mM AEBSF, 10 KIU/ml aprotinin, 50 μM leupeptin, and 2 mM sodium orthovanadate) was added. The cells were lysed for 30 min.
In the ELISA portion of the assay, the cell lysates were added to the BSA-blocked anti-IR unit mAb (Upstate Biotechnology, Lake Placid, N.Y.) coated ELISA plates. After a 2 h incubation, the plates were washed 6 times with PBST and biotinylated anti-phosphotyrosine antibody (Upstate Biotechnology) is added. After another 2 h incubation, the plates were again washed 6 times. Streptavidin-Eu was then added, and the plates were incubated for 1 h. After washing the plates again, EG&G Wallac enhancement solution (100 mM acetone-potassium hydrogen pthalate, pH 3.2; 15 mM 2-naphtyltrifluoroacetate; 50 mM tri(n-octyl)-phosphine oxide; 0.1% Triton X-100) was added into each well, and the plates were placed onto a shaker for 20 min at RT.

IR = IR activity (agonist/antagonist) of MBP-peptide fusions, Table 10; test not named; details: MBP-peptide fusion proteins; one symbol per monomer unit
[2] = target: recombinant human insulin receptor (Homo sapiens, UniProt P06213); assay: Substrate phosphorylation assay (HIR kinase); type: biochemical; details: Table 8, HIR kinase assay
Procedure: Subsequently, a 2000-fold dilution of horseradish peroxidase (HRPO) conjugated phosphotyrosine antibody (Transduction Laboratories, Cat. No. E120H) in TBS was added. The plates were incubated for 30 min and washed 3 times with TBS. TMB (3,3′,5,5′-tetramethylbenzidine; Kem-En-Tec, Copenhagen, Denmark) was added. One substrate from Kem-En-Tec was added. After 10-15 min, the reaction was stopped by the addition of 1% acetic acid. The absorbance, representing the extent of substrate phosphorylation, was measured in a spectrophotometer at a wavelength of 450 nm.

[3] = system: free fat cells (adipocytes); assay: Adipocyte / free fat cell (FFC) assay, 3H glucose incorporation into lipid; details: for FFC Pot., agonist or antagonist: Table 8, letter before the potency
Procedure: Incorporation of ^3H into the lipid phase was determined by partitioning of lipid phase into a scintillant mixture, which excludes water-soluble ^3H products.

[4] = target: T2, human insulin receptor (HIR) (Homo sapiens, UniProt P06213); assay: Insulin receptor binding, competition with 125I-labeled insulin (HIR Kd); details: insulin competition
T2 construct: made in house

B1: RP30-IGF-12-D112: dimer peptide (Site 1-Site 1) (protein)
chain: ADYKDSFYSCLESLVNGGAERSDGQWEGCRGGSGGSGGSGGSCWARPCGDAANFYDWFVQQASKKAAAGAPVPYPDPLEPRPG
IGF-1R agonist activity, proliferation of MCF-7 and MiaPaCa cells, in words (MCF-7 cells): IGF-1R agonist activity

B2: H2C-3aa-H2C: MBP fusion, H2C dimer (Site 1-Site 1) with 3 amino acid linker (protein)
chain: NNNNLGIEGRISEFIEGRAQPAMAFHENFYDWFVRQVSGGSFHENFYDWFVRQVSAAAGAPVPYPDPLEPRAA
modifications: left off: large carriers; small tags and cut ends
stimulation of autophosphorylation of IR [1]: active

B3: 463 (protein)
chain: B2 chain
modifications: MBP fusion
Act. (activity) (IR): A—A

B4: H2C-9aa-H2C: MBP fusion, H2C dimer (Site 1-Site 1) with 9 amino acid linker (protein)
chain: NNNNLGIEGRISEFIEGRAQPAMAFHENFYDWFVRQVSGGSGGSGGSFHENFYDWFVRQVSAAAGAPVPYPDPLEPRAA
modifications: left off: large carriers; small tags and cut ends
stimulation of autophosphorylation of IR [1]: active

B5: D112-12-RP30-IGF: dimer peptide (Site 1-Site 1) (protein)
chain: ADYKDCWARPCGDAANFYDWFVQQASKKGGSGGSGGSGGSSFYSCLESLVNGGAERSDGQWEGCRAAAGAPVPYPDPLEPRPG
IGF-1R agonist activity, proliferation of MCF-7 and MiaPaCa cells, in words (MCF-7 cells): IGF-1R agonist activity

Further lines, with some results ahead:

Kinase Pot. (nM) [2]: Inactive
B6: MADYKDDDDKGSLDESFYDWFERQLGKKGGSGGSGGSGGSWLDQEWAWVQCEVYGRGCPSAAA(ETAG)PG (protein)
chain: MADYKDDDDKGSLDESFYDWFERQLGKKGGSGGSGGSGGSWLDQEWAWVQCEVYGRGCPSAAAGAPVPYPDPLEPRPG
modifications: E-tag
activity in the free fat cell (FFC) assay / at IR, in words [3]: active as specific insulin receptor antagonists
FFC Pot., agonist or antagonist [3]: N
activity in the FFC assay using the standard concentration of insulin [3]: inactive
activity in the FFC assay in the presence of a stimulating concentration of insulin [3]: antagonists
IR / HIR binding affinity compared with monomer or homodimer peptides, in words [4]: substantially higher (several orders of magnitude) affinity

Kinase Pot. (nM) [2]: Inactive
B7: MADYKDDDDKGSLDESFYDWFERQLGKKGGSGGSWLDQEWAWVQCEVYGRGCPSAAA(ETAG)PG (protein)
chain: MADYKDDDDKGSLDESFYDWFERQLGKKGGSGGSWLDQEWAWVQCEVYGRGCPSAAAGAPVPYPDPLEPRPG
modifications: E-tag
activity in the free fat cell (FFC) assay / at IR, in words [3]: active as specific insulin receptor antagonists
FFC Pot., agonist or antagonist [3]: N
activity in the FFC assay using the standard concentration of insulin [3]: inactive
activity in the FFC assay in the presence of a stimulating concentration of insulin [3]: antagonists
IR / HIR binding affinity compared with monomer or homodimer peptides, in words [4]: substantially higher (several orders of magnitude) affinity
